Source: patent US7569660

Experiments:
[1] = biological target: yeast Hsp104 protein (UniProt P31539)
[2] = biological target: Rnq1 (S. cerevisiae) (UniProt P25367)

Chain of yeast Hsp104 protein (P31539 whole entry): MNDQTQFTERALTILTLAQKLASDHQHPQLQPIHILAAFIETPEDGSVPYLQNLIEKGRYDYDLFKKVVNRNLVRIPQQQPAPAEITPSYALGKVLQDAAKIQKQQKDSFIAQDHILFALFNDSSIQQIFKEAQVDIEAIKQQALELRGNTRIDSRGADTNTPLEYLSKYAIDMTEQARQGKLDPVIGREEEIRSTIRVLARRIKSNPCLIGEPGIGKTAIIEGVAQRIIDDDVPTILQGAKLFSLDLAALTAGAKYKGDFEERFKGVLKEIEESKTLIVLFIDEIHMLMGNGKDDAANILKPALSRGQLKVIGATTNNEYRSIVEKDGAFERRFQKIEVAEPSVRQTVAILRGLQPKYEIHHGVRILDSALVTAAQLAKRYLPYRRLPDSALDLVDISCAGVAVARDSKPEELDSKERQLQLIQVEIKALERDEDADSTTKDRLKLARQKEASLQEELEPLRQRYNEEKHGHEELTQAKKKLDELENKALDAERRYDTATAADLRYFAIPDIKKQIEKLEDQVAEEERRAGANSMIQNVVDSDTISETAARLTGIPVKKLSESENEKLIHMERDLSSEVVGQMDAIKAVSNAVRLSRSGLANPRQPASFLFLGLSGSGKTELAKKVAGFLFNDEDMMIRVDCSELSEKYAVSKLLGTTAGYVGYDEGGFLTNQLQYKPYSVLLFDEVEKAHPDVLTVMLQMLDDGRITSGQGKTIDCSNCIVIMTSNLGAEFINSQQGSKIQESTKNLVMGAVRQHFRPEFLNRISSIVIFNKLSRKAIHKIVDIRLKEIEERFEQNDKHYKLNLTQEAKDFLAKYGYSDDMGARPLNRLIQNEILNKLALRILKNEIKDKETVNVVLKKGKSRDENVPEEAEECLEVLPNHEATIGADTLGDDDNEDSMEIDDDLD

Substance | ATPase activity of Hsp104 (released phosphate, Malachite Green) [1] | lag time of Thioflavin T fluorescence increase, seeded with 2% preformed fibers [2] [h] | lag time of Thioflavin T fluorescence increase, unseeded [2] [h]
aldolase | did not |  | 
Rnq1 (from UniProt P25367 1-405) |  | 4.3 | 6.4
